Read-outs that look alike come from different tables or passages of the source.
Tests used:
[1] = Description: […] (test sample). Delipidation was carried out by extracting the lipids with an equal volume of 2:1 (v/v) chloroform:methanol.
The samples were loaded onto a reverse-phase C18 HPLC column and eluted with a linear gradient (25-58% over 33 min.) of acetonitrile (containing 0.1% TFA). Elution profiles were followed by absorbance (220 nm) and radioactivity.

HDL = test system: HDL
Description: (§1) The association of peptide 4 (SEQ ID NO:4) with human lipoprotein fractions was determined by incubating ^14C-labeled peptide 4 (SEQ ID NO:4) with each lipoprotein class (HDL, LDL and VLDL) and a mixture of the different lipoprotein classes.
(§2) HDL, LDL and VLDL were isolated by KBr density gradient ultracentrifugation at d=1.21 g/ml and purified by FPLC on a Superose 6B column size exclusion column (chromatography was carried out with a flow rate of 0.7 ml/min. and a running buffer of 10 mM Tris (pH 8), 115 mM NaCl, 2 mM EDTA and 0.01% NaN3). ^14C-labeled peptide 4 was incubated with HDL, LDL and VLDL at a peptide:phospholipid ratio of 1:5 (mass ratio) for 2 h at 37° C. The required amount of lipoprotein (volumes based on amount needed to yield 1000 μg) was mixed with 0.2 ml of peptide stock solution (1 mg/ml) and the solution was brought up to 2.2 ml using 0.9% of NaCl according to TABLE XIII:
(§3) After incubating for 2 hr. at 37° C., an aliquot (0.1 ml) was removed for liquid scintillation counting to determine the total radioactivity, the density of the remaining incubation mixture was adjusted to 1.21 g/ml with KBr, and the samples centrifuged at 100,000 rpm (300,000 g) for 24 hours at 4° C. in a TLA 100.3 rotor using a Beckman tabletop ultracentrifuge. The resulting supernatant was fractionated by removing 0.3 ml aliquots from the top of each sample for a total of 5 fractions, and 0.05 ml of each fraction was used for liquid scintillation counting. The top two fractions contain the floating lipoproteins, the other fractions (3-5) correspond to proteins/peptides in solution.

LDL = test system: LDL
Description: as §1, §2, §3

VLDL = test system: VLDL
Description: as §1, §2, §3

[2] = test system: mixture of HDL, LDL and VLDL
Description: as §1, §2, §3

HDL in human plasma = details: for Radioactivity in 300 μl: 50 μl value multiplied by 6
Description: Human plasma (2 ml) was incubated with 20, 40, 60, 80, and 100 μg of ^14C-labeled peptide peptide 4 for 2 hr. at 37° C. The lipoproteins were separated by adjusting the density to 1.21 g/ml and centrifugation in TLA 100.3 rotor at 100,000 rpm (300,000 g) for 36 hr. at 4° C. The top 900 μl (in 300 μl fractions) was taken for the analysis. 50 μl from each 300 μl fraction was counted for radioactivity and 200 μl from each fraction was analyzed by FPLC (Superose 6/Superose 12 combination column).

[3] = Control (peptide without lipoprotein)

## PVLDLFRELLNELLEALKQKLK [peptide 4]
[1]; 8 day incubation in human serum, 37° C.
  peptide remaining intact: more than 80%
[1]; human plasma, 8 days at 37° C.
  degraded peptide (3 min. peak), share of total radioactivity: approximately 15%
HDL; HDL/Peptide
  Recovery: 91%
  radioactivity Total: 89970
  radioactivity Total before centrifugation: 98494
  radioactivity in Fraction 1: 61510
  radioactivity in Fraction 2: 17620
  radioactivity in Fraction 3: 2260
  radioactivity in Fraction 4: 3130
  radioactivity in Fraction 5: 5450
HDL; incubation with isolated HDL
  share of total radioactivity in fractions 1 and 2 (associated with lipoprotein): 88%
LDL; LDL/Peptide
  Recovery: 89%
  radioactivity Total: 89330
  radioactivity Total before centrifugation: 100452
  radioactivity in Fraction 1: 43740
  radioactivity in Fraction 2: 15140
  radioactivity in Fraction 3: 11880
  radioactivity in Fraction 4: 10860
  radioactivity in Fraction 5: 7710
LDL; incubation with isolated LDL
  share of total radioactivity in fractions 1 and 2 (associated with lipoprotein): 66%
VLDL; VLDL/Peptide
  Recovery: 75%
  radioactivity Total: 73280
  radioactivity Total before centrifugation: 97306
  radioactivity in Fraction 1: 42920
  radioactivity in Fraction 2: 19280
  radioactivity in Fraction 3: 3930
  radioactivity in Fraction 4: 2600
  radioactivity in Fraction 5: 4550
VLDL; incubation with isolated VLDL
  share of total radioactivity in fractions 1 and 2 (associated with lipoprotein): 85%
[2]; [3]
  Recovery: 89%
  radioactivity Total: 79170
  radioactivity Total before centrifugation: 88550
  radioactivity in Fraction 1: 650
  radioactivity in Fraction 2: 1000
  radioactivity in Fraction 3: 6590
  radioactivity in Fraction 4: 36550
  radioactivity in Fraction 5: 34380
[2]; LP/Peptide
  FPLC analysis of the LP/peptide incubation mixture (in words): nearly all of the ^14C-labeled peptide 4 was associated with the HDL fraction
  Recovery: 87%
  radioactivity Total: 83650
  radioactivity Total before centrifugation: 96646
  radioactivity in Fraction 2: 12990
  radioactivity in Fraction 3: 3810
  radioactivity in Fraction 4: 1510
  radioactivity in Fraction 5: 5090
[2]; LP/Peptide (HDL, LDL and VLDL)
  radioactivity in Fraction 1: 60250
[2]; LP/Peptide, all lipoprotein fractions
  labeled peptide associated with the lipoprotein fraction: 88%
HDL in human plasma; 20 μg peptide in 2 ml human plasma, Fraction No. 1
  Radioactivity in 50 μl: 1407 cpm
HDL in human plasma; 20 μg peptide, Fraction No. 1
  Recovery: 71.6%
  Radioactivity in 300 μl: 8442 cpm
HDL in human plasma; 20 μg peptide, Fraction No. 2
  Radioactivity in 50 μl: 405 cpm
  Recovery: 20.6%
  Radioactivity in 300 μl: 2430 cpm
HDL in human plasma; 20 μg peptide, Fraction No. 3
  Radioactivity in 50 μl: 152 cpm
  Recovery: 7.7%
  Radioactivity in 300 μl: 912 cpm
HDL in human plasma; 40 μg peptide, Fraction No. 1
  Radioactivity in 50 μl: 2538 cpm
  Recovery: 70.4%
  Radioactivity in 300 μl: 15228 cpm
HDL in human plasma; 40 μg peptide, Fraction No. 2
  Radioactivity in 50 μl: 721 cpm
  Recovery: 20%
  Radioactivity in 300 μl: 4326 cpm
HDL in human plasma; 40 μg peptide, Fraction No. 3
  Radioactivity in 50 μl: 347 cpm
  Recovery: 9.6%
  Radioactivity in 300 μl: 2082 cpm
HDL in human plasma; 60 μg peptide, Fraction No. 1
  Radioactivity in 50 μl: 4492 cpm
  Recovery: 75.5%
  Radioactivity in 300 μl: 26952 cpm
HDL in human plasma; 60 μg peptide, Fraction No. 2
  Radioactivity in 50 μl: 1107 cpm
  Recovery: 18.6%
  Radioactivity in 300 μl: 6642 cpm
HDL in human plasma; 60 μg peptide, Fraction No. 3
  Radioactivity in 50 μl: 354 cpm
  Recovery: 5.9%
  Radioactivity in 300 μl: 2124 cpm
HDL in human plasma; 80 μg peptide, Fraction No. 1
  Radioactivity in 50 μl: 4715 cpm
  Recovery: 60%
  Radioactivity in 300 μl: 28290 cpm
HDL in human plasma; 80 μg peptide, Fraction No. 2
  Radioactivity in 50 μl: 2251 cpm
  Recovery: 28.6%
  Radioactivity in 300 μl: 13506 cpm
HDL in human plasma; 80 μg peptide, Fraction No. 3
  Radioactivity in 50 μl: 851 cpm
  Recovery: 11.3%
  Radioactivity in 300 μl: 5346 cpm
HDL in human plasma; 100 μg peptide, Fraction No. 1
  Radioactivity in 50 μl: 5424 cpm
  Recovery: 67.5%
  Radioactivity in 300 μl: 32544 cpm
HDL in human plasma; 100 μg peptide, Fraction No. 2
  Radioactivity in 50 μl: 1708 cpm
  Recovery: 21.2%
  Radioactivity in 300 μl: 10248 cpm
HDL in human plasma; 100 μg peptide, Fraction No. 3
  Radioactivity in 50 μl: 907 cpm
  Recovery: 11.3%
  Radioactivity in 300 μl: 5442 cpm

Reference: patent US6602854B1, “Branched multimeric Apo A-I agonist compounds” (priority 1997, dated 2003)
